Here are results for six molecules from article PMC4610628 (Immunology, 2015).

Assay [1] concerns the target T1, SHIP SH2 domain from SHIP-1, recombinant human (human, UniProt Q92835 5-101).
T1 construct: SH2 domain of the inositol phosphatase SHIP-1, human; source: recombinant, produced in-house and purified on the day of the experiment
T1 sequence (looked up): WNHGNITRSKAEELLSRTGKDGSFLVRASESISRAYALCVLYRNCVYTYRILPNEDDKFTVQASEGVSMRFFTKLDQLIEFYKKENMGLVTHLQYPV
Nature of the assay: SPR; BIAcore 3000; biotinylated phosphopeptides immobilised on a streptavidin-coated CM5 chip (~30 RU), purified recombinant protein passed over; 37°; 10 mM HEPES pH 7·4, 150 mM KCl, 10 mM EDTA, 0·005% Tween 20; equilibrium data, one-site binding curve. The conditions noted are these: both partners purified. (SPR reads the build-up and loss of mass on a sensor chip optically.)

Assay [2] deals with T2, signalling lymphocyte activation molecule-associated protein (SAP), full length, recombinant human (human, UniProt O60880 1-128).
T2 construct: SAP (SH2D1A), human, full length recombinant protein; called 'soluble monomeric recombinant human SAP' in the results; also called SH2D1A; source: recombinant, produced in-house and purified on the day of the experiment
T2 sequence (looked up): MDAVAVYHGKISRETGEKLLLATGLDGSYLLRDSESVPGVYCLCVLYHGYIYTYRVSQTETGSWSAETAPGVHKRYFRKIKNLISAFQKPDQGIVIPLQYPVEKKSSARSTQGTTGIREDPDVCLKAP
Described as above. The conditions noted are these: both partners purified.

Assay [3] has as its target CD229 more distal ITSM phosphopeptide (TIpYCS) (human). As to the kind of experiment: SPR; data not shown; SAP on tyrosine phosphorylated CD229 distal ITSM peptide, 37°C, n = 3.

Several values for one entry are separate records, joined by “and”; a condition that tells them apart may be missing. Equal entries are not always repeated. Square brackets hold non-standard residues; d marks the D form. Ends that are not written are not given here. * marks the point of attachment. Biotin = O=C1N[C@H]2[C@H](CS[C@H]2CCCCC(=O)*)N1; pY = N[C@@H](Cc1ccc(OP(=O)(O)O)cc1)C(=O)O

B1: CD244-ITSM2 phosphopeptide (peptide)
peptide: Biotin-GGSTI[pY]SMIQS
notes: CD244 (2B4, SLAMF4), human, ITSM2; source: synthetic peptide; bought: Peptide Protein Research Ltd
With B1, the Kd (as a rule, the free concentration of one partner at which half of the binding sites on the other are occupied at equilibrium, for simple one-to-one binding) in assay [1] is 2.4 µM.

B2: CD229V phosphopeptide (CD229 ITSM1, Val602 variant) (peptide)
peptide: Biotin-GENTV[pY]AQVFN
notes: CD229 (Ly9, SLAMF3), human, first (membrane proximal) ITSM, natural variant Val602 of SNP rs509749; also called CD229 Val602 ITSM; TVpYAQV; source: synthetic peptide; bought: Peptide Protein Research Ltd
Regarding B2, the Kd in assay [1] is 100 µM and 82 to 110 µM; in assay [2], 3.4 µM and 2.8 µM and 4.4 µM.

B3: CD229M phosphopeptide (CD229 ITSM1, Met602 variant) (peptide)
peptide: Biotin-GENTM[pY]AQVFN
notes: CD229 (Ly9, SLAMF3), human, first (membrane proximal) ITSM, natural variant Met602 of SNP rs509749; also called CD229 Met602 ITSM; TMpYAQV; source: synthetic peptide; bought: Peptide Protein Research Ltd
As for B3, the Kd in assay [1] is 23 to 92 µM and > 50 µM; in assay [2], 1.7 µM and 1.5 to 2 µM.

B4: FcγRIIb-ITIM phosphopeptide (peptide)
peptide: Biotin-ADKVGAENTIT[pY]SLLMHPDA
notes: FcγRIIb, human, ITIM; source: synthetic peptide; bought: Peptide Protein Research Ltd
On to B4, for which, in assay [1], the Kd amounted to 0.36 µM.

B5: signalling lymphocyte activation molecule-associated protein (SAP), full length, recombinant human (natural protein)
chain: MDAVAVYHGKISRETGEKLLLATGLDGSYLLRDSESVPGVYCLCVLYHGYIYTYRVSQTETGSWSAETAPGVHKRYFRKIKNLISAFQKPDQGIVIPLQYPVEKKSSARSTQGTTGIREDPDVCLKAP
In turn, B5 returned a Kd in assay [3] of 0.1 µM.

B6: CD244-ITSM1 phosphopeptide (peptide)
peptide: Biotin-EFLTI[pY]EDVKD
notes: CD244 (2B4, SLAMF4), human, ITSM1; source: synthetic peptide; bought: Peptide Protein Research Ltd
Consider B6, for which the Kd in assay [1] is 25 µM.
